Test results from doi:10.1101/2023.03.21.532770 (bioRxiv, 2023).

Biological target: the molecule itself
Assay: crystal structure

B1: mouse 2,4-Dienoyl-CoA reductase 1 (Decr1) (enzyme, UniProt Q9CQ62 35-335, looked up)
chain: SKDAPQSKFFQPVLKPMLPPDAFQGKVAFITGGGTGLGKAMTTFLSTLGAQCVIASRNIDVLKATAEEISSKTGNKVHAIRCDVRDPDMVHNTVLELIKVAGHPDVVINNAAGNFISPSERLTPNGWKTITDIVLNGTAYVTLEIGKQLIKAQKGAAFLAITTIYAESGSGFVMPSSSAKSGVEAMNKSLAAEWGRYGMRFNIIQPGPIKTKGAFSRLDPTGRFEKEMIDRIPCGRLGTMEELANLATFLCSDYASWINGAVIRFDGGEEVFLSGEFNSLKKVTKEEWDIIEGLIRKTKGS
stoichiometry N: 4
